The assay addresses T1, DLL4 ECD His tag (UniProt Q9NR61 27-529, limits assumed).
T1 construct: extracellular domain; also called DLL ECD His tag
The assay is described as follows: SPR (Biacore), DVD-Ig captured, DLL4 as analyte. A general note: Surface plasmon resonance follows binding to a sensor surface in real time, without labels.

As a reminder, the Kd is the free concentration of one partner at which half of the binding sites on the other are occupied at equilibrium, for simple one-to-one binding. Low values mean higher affinity, high ones lower affinity. One may read the koff as the first-order rate constant of dissociation. Lower therefore signals a long-lived complex. In general, kon refers to the rate constant with which the complex forms. A high value points to faster complex formation.

B1: DVD513 (bispecific antibody, human IgG1, kappa)
heavy: not shown
light: QAVVTQESALTTSPGETVTLTCRSSTGAVTTSNYANWVQEKPDHLFTGLIGGTNNRAPGVPARFSGSLIGDKAALTITGAQTEDEAIYFCALWYSNHWVFGGGTKLTVLGQPKAAPDIQMTQSPSSLSASVGDRVTITCRASQDVSTAVAWYQQKPGKAPKLLIYSASFLYSGVPSRFSGSGSGTDFTLTISSLQPEDFATYYCQQSYTTPPTFGQGTKVEIKRTVAAPSVFIFPPSDEQLKSGTASVVCLLNNFYPREAKVQWKVDNALQSGNSQESVTEQDSKDSTYSLSSTLTLSKADYEKHKVYACEVTHQGLSSPVTKSFNRGEC
notes: HC linker short, LC linker short; also called DVD-Ig DVD513
In the case of B1, the Kd came to 2.5 nM, the koff was determined as 0.000677 s⁻¹ and the kon is 271000 M⁻¹ s⁻¹.

B2: DVD492 (bispecific antibody, human IgG1, kappa)
heavy: not shown
light: DIQMTQSPSSLSASVGDRVTITCRASQVIRRSLAWYQQKPGKAPKLLIYAASNLASGVPSRFSGSGSGTDFTLTISSLQPEDFATYYCQQSNTSPLTFGQGTKVEIKRTVAAPDIQMTQSSSYLSVSLGGRVTITCKASDHINNWLAWYQQKPGNAPRLLISGATSLETGVPSRFSGSGSGKDYTLSITSLQTEDVATYYCQQYWSIPLTFGAGTKLELKRTVAAPSVFIFPPSDEQLKSGTASVVCLLNNFYPREAKVQWKVDNALQSGNSQESVTEQDSKDSTYSLSSTLTLSKADYEKHKVYACEVTHQGLSSPVTKSFNRGEC
notes: Outer AB071 (VEGF), inner AB072 (DLL4); HC linker short, LC linker short; also called DVD-Ig DVD492
In turn, B2 yielded a Kd of 1.07 nM, a koff of 8.35e-05 s⁻¹ and a kon of 78200 M⁻¹ s⁻¹.

B3: DVD504 (bispecific antibody, human IgG1, kappa)
heavy: not shown
light: DIQMTQSPSSLSASVGDRVTITCRASQVIRRSLAWYQQKPGKAPKLLIYAASNLASGVPSRFSGSGSGTDFTLTISSLQPEDFATYYCQQSNTSPLTFGQGTKVEIKRTVAAPDIQMTQSSSYLSVSLGGRVTITCKASDHINNWLAWYQQKPGNAPRLLISGATSLETGVPSRFSGSGSGKDYTLSITSLQTEDVATYYCQQYWSIPLTFGAGTKLELKRTVAAPSVFIFPPSDEQLKSGTASVVCLLNNFYPREAKVQWKVDNALQSGNSQESVTEQDSKDSTYSLSSTLTLSKADYEKHKVYACEVTHQGLSSPVTKSFNRGEC
notes: Outer AB071 (VEGF), inner AB072 (DLL4); HC linker long, LC linker short; also called DVD-Ig DVD504
B3 registered a Kd of 1.26 nM, a koff of 7.32e-05 s⁻¹ and a kon of 58100 M⁻¹ s⁻¹.

B4: DVD449 (bispecific antibody, human IgG1, kappa)
heavy: not shown
light: DIVMTQSPDSLAVSLGERATISCRASESVDNYGISFMKWFQQKPGQPPKLLIYAASNQGSGVPDRFSGSGSGTDFTLTISSLQAEDVAVYYCQQSKEVPWTFGGGTKVEIKRTVAAPSVFIFPPDIQMTQSPSSLSASVGDRVTITCRASQDVSTAVAWYQQKPGKAPKLLIYSASFLYSGVPSRFSGSGSGTDFTLTISSLQPEDFATYYCQQSYTTPPTFGQGTKVEIKRTVAAPSVFIFPPSDEQLKSGTASVVCLLNNFYPREAKVQWKVDNALQSGNSQESVTEQDSKDSTYSLSSTLTLSKADYEKHKVYACEVTHQGLSSPVTKSFNRGEC
notes: HC linker long, LC linker long; also called DVD-Ig DVD449
In the case of B4, the Kd amounted to 4.81 nM, the koff was 0.000584 s⁻¹ and the kon amounted to 121000 M⁻¹ s⁻¹.

B5: DVD461 (bispecific antibody, human IgG1, kappa)
heavy: not shown
light: DIVMTQSPDSLAVSLGERATISCRASESVDNYGISFMKWFQQKPGQPPKLLIYAASNQGSGVPDRFSGSGSGTDFTLTISSLQAEDVAVYYCQQSKEVPWTFGGGTKVEIKRTVAAPSVFIFPPDIQMTQSPSSLSASVGDRVTITCRASQDVSTAVAWYQQKPGKAPKLLIYSASFLYSGVPSRFSGSGSGTDFTLTISSLQPEDFATYYCQQSYTTPPTFGQGTKVEIKRTVAAPSVFIFPPSDEQLKSGTASVVCLLNNFYPREAKVQWKVDNALQSGNSQESVTEQDSKDSTYSLSSTLTLSKADYEKHKVYACEVTHQGLSSPVTKSFNRGEC
notes: HC linker short, LC linker long; also called DVD-Ig DVD461
Regarding B5, binding was put at a Kd of 4.69 nM, the koff turned out to be 0.000538 s⁻¹ and the kon came to 115000 M⁻¹ s⁻¹.

B6: DVD443 (bispecific antibody, human IgG1, kappa)
heavy: not shown
light: DIVMTQSPDSLAVSLGERATISCRASESVDNYGISFMKWFQQKPGQPPKLLIYAASNQGSGVPDRFSGSGSGTDFTLTISSLQAEDVAVYYCQQSKEVPWTFGGGTKVEIKRTVAAPDIQMTQSPSSLSASVGDRVTITCRASQDVSTAVAWYQQKPGKAPKLLIYSASFLYSGVPSRFSGSGSGTDFTLTISSLQPEDFATYYCQQSYTTPPTFGQGTKVEIKRTVAAPSVFIFPPSDEQLKSGTASVVCLLNNFYPREAKVQWKVDNALQSGNSQESVTEQDSKDSTYSLSSTLTLSKADYEKHKVYACEVTHQGLSSPVTKSFNRGEC
notes: HC linker short, LC linker short; also called DVD-Ig DVD443
Take B6: the Kd is 4.11 nM, the koff was determined as 0.000596 s⁻¹ and the kon is 145000 M⁻¹ s⁻¹.

B7: DVD455 (bispecific antibody, human IgG1, kappa)
heavy: not shown
light: DIVMTQSPDSLAVSLGERATISCRASESVDNYGISFMKWFQQKPGQPPKLLIYAASNQGSGVPDRFSGSGSGTDFTLTISSLQAEDVAVYYCQQSKEVPWTFGGGTKVEIKRTVAAPDIQMTQSPSSLSASVGDRVTITCRASQDVSTAVAWYQQKPGKAPKLLIYSASFLYSGVPSRFSGSGSGTDFTLTISSLQPEDFATYYCQQSYTTPPTFGQGTKVEIKRTVAAPSVFIFPPSDEQLKSGTASVVCLLNNFYPREAKVQWKVDNALQSGNSQESVTEQDSKDSTYSLSSTLTLSKADYEKHKVYACEVTHQGLSSPVTKSFNRGEC
notes: HC linker long, LC linker short; also called DVD-Ig DVD455
Molecule B7 returned a Kd of 4.7 nM, a koff of 0.000604 s⁻¹ and a kon of 129000 M⁻¹ s⁻¹.

B8: DVD534 (bispecific antibody, human IgG1, kappa, lambda, L234A L235A)
heavy: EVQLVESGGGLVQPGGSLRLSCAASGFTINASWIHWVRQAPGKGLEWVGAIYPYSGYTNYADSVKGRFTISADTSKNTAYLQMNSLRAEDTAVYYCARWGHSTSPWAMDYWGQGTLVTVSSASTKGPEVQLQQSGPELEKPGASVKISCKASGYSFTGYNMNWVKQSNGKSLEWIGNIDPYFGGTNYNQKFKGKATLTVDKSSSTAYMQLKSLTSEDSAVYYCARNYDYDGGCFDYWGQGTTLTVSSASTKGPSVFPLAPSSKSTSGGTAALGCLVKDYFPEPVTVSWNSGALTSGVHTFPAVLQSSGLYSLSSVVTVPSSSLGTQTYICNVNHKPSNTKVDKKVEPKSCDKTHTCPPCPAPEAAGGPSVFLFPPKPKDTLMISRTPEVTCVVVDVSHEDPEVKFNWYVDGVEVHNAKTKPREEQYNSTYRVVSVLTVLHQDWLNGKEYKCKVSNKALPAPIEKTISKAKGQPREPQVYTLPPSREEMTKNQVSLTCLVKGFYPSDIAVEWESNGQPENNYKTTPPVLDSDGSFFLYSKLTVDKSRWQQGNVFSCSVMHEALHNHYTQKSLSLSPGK
light: DIQMTQSPSSLSASVGDRVTITCRASQVIRRSLAWYQQKPGKAPKLLIYAASNLASGVPSRFSGSGSGTDFTLTISSLQPEDFATYYCQQSNTSPLTFGQGTKVEIKRTVAAPSVFIFPPQAVVTQESALTTSPGETVTLTCRSSTGAVTTSNYANWVQEKPDHLFTGLIGGTNNRAPGVPARFSGSLIGDKAALTITGAQTEDEAIYFCALWYSNHWVFGGGTKLTVLGQPKAAPSVTLFPPSSEELQANKATLVCLISDFYPGAVTVAWKADSSPVKAGVETTTPSKQSNNKYAASSYLSLTPEQWKSHRSYSCQVTHEGSTVEKTVAPTECS
notes: Outer AB071 (VEGF), inner AB073 (DLL4); HC linker short, LC linker long; also called DVD-Ig DVD534
The molecule B8 came in with a Kd of 5.78 nM, a koff of 0.002 s⁻¹ and a kon of 346000 M⁻¹ s⁻¹.

B9: DVD471 (bispecific antibody, human IgG1, kappa, L234A L235A)
heavy: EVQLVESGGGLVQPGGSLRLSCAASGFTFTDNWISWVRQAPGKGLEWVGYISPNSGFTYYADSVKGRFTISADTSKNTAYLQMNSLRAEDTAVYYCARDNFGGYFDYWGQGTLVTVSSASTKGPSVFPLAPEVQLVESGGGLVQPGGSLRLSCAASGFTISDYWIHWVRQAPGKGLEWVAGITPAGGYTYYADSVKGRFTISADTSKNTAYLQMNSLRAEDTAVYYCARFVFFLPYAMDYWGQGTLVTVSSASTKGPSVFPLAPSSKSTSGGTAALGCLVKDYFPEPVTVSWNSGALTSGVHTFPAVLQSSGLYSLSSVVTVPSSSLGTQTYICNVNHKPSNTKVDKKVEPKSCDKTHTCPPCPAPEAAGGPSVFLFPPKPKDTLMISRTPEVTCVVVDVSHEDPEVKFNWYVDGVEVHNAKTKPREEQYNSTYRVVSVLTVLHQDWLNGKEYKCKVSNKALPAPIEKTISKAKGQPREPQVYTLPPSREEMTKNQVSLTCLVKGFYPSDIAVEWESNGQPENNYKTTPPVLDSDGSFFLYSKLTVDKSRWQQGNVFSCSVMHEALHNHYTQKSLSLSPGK
light: DIQMTQSPSSLSASVGDRVTITCRASQDVSTAVAWYQQKPGKAPKLLIYSASFLYSGVPSRFSGSGSGTDFTLTISSLQPEDFATTYYCQQSYTGTVTFGQGTKVEIKRTVAAPSVFIFPPDIQMTQSPSSLSASVGDRVTITCRASQDVSTAVAWYQQKPGKAPKLLIYSASFLYSGVPSRFSGSGSGTDFTLTISSLQPEDFATYYCQQSYTTPPTFGQGTKVEIKRTVAAPSVFIFPPSDEQLKSGTASVVCLLNNFYPREAKVQWKVDNALQSGNSQESVTEQDSKDSTYSLSSTLTLSKADYEKHKVYACEVTHQGLSSPVTKSFNRGEC
notes: HC linker long, LC linker long; also called DVD-Ig DVD471
B9: the Kd came out at 0.672 nM, the koff was 0.000252 s⁻¹ and the kon came to 376000 M⁻¹ s⁻¹.

B10: DVD483 (bispecific antibody, human IgG1, kappa)
heavy: not shown
light: DIQMTQSPSSLSASVGDRVTITCRASQDVSTAVAWYQQKPGKAPKLLIYSASFLYSGVPSRFSGSGSGTDFTLTISSLQPEDFATTYYCQQSYTGTVTFGQGTKVEIKRTVAAPSVFIFPPDIQMTQSPSSLSASVGDRVTITCRASQDVSTAVAWYQQKPGKAPKLLIYSASFLYSGVPSRFSGSGSGTDFTLTISSLQPEDFATYYCQQSYTTPPTFGQGTKVEIKRTVAAPSVFIFPPSDEQLKSGTASVVCLLNNFYPREAKVQWKVDNALQSGNSQESVTEQDSKDSTYSLSSTLTLSKADYEKHKVYACEVTHQGLSSPVTKSFNRGEC
notes: HC linker short, LC linker long; also called DVD-Ig DVD483
On to B10, for which the Kd is 0.334 nM, the koff was determined as 0.000139 s⁻¹ and the kon stood at 416000 M⁻¹ s⁻¹.

B11: DVD498 (bispecific antibody, human IgG1, kappa)
heavy: not shown
light: DIQMTQSPSSLSASVGDRVTITCRASQVIRRSLAWYQQKPGKAPKLLIYAASNLASGVPSRFSGSGSGTDFTLTISSLQPEDFATYYCQQSNTSPLTFGQGTKVEIKRTVAAPSVFIFPPDIQMTQSSSYLSVSLGGRVTITCKASDHINNWLAWYQQKPGNAPRLLISGATSLETGVPSRFSGSGSGKDYTLSITSLQTEDVATYYCQQYWSIPLTFGAGTKLELKRTVAAPSVFIFPPSDEQLKSGTASVVCLLNNFYPREAKVQWKVDNALQSGNSQESVTEQDSKDSTYSLSSTLTLSKADYEKHKVYACEVTHQGLSSPVTKSFNRGEC
notes: Outer AB071 (VEGF), inner AB072 (DLL4); HC linker long, LC linker long; also called DVD-Ig DVD498
In turn, B11 showed a dissociation constant (Kd) of 1.45 nM, a koff of 9.36e-05 s⁻¹ and a kon of 64600 M⁻¹ s⁻¹.

B12: DVD510 (bispecific antibody, human IgG1, kappa)
heavy: not shown
light: DIQMTQSPSSLSASVGDRVTITCRASQVIRRSLAWYQQKPGKAPKLLIYAASNLASGVPSRFSGSGSGTDFTLTISSLQPEDFATYYCQQSNTSPLTFGQGTKVEIKRTVAAPSVFIFPPDIQMTQSSSYLSVSLGGRVTITCKASDHINNWLAWYQQKPGNAPRLLISGATSLETGVPSRFSGSGSGKDYTLSITSLQTEDVATYYCQQYWSIPLTFGAGTKLELKRTVAAPSVFIFPPSDEQLKSGTASVVCLLNNFYPREAKVQWKVDNALQSGNSQESVTEQDSKDSTYSLSSTLTLSKADYEKHKVYACEVTHQGLSSPVTKSFNRGEC
notes: Outer AB071 (VEGF), inner AB072 (DLL4); HC linker short, LC linker long; also called DVD-Ig DVD510
For B12, the Kd came out at 1.55 nM, the koff is 8.84e-05 s⁻¹ and the kon is 56900 M⁻¹ s⁻¹.

B13: DVD465 (bispecific antibody, human IgG1, kappa)
heavy: not shown
light: DIQMTQSPSSLSASVGDRVTITCRASQDVSTAVAWYQQKPGKAPKLLIYSASFLYSGVPSRFSGSGSGTDFTLTISSLQPEDFATTYYCQQSYTGTVTFGQGTKVEIKRTVAAPDIQMTQSPSSLSASVGDRVTITCRASQDVSTAVAWYQQKPGKAPKLLIYSASFLYSGVPSRFSGSGSGTDFTLTISSLQPEDFATYYCQQSYTTPPTFGQGTKVEIKRTVAAPSVFIFPPSDEQLKSGTASVVCLLNNFYPREAKVQWKVDNALQSGNSQESVTEQDSKDSTYSLSSTLTLSKADYEKHKVYACEVTHQGLSSPVTKSFNRGEC
notes: HC linker short, LC linker short; also called DVD-Ig DVD465
The molecule B13 returned a Kd of 0.205 nM, a koff of 0.000164 s⁻¹ and a kon of 797000 M⁻¹ s⁻¹.

B14: DVD477 (bispecific antibody, human IgG1, kappa, L234A L235A)
heavy: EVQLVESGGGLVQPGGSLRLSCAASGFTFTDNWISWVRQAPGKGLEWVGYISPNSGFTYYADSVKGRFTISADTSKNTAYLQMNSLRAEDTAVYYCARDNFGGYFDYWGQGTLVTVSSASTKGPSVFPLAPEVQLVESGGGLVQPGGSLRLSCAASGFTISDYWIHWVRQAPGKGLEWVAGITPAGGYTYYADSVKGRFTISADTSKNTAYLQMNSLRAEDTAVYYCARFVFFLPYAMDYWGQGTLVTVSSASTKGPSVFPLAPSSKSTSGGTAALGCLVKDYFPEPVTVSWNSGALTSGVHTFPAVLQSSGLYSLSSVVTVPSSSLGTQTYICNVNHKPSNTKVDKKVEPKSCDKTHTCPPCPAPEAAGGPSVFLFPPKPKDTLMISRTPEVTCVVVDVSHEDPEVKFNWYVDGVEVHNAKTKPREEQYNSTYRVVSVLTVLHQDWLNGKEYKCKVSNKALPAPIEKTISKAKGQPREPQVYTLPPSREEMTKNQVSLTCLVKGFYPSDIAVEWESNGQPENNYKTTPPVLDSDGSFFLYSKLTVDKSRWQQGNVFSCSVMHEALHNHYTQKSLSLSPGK
light: DIQMTQSPSSLSASVGDRVTITCRASQDVSTAVAWYQQKPGKAPKLLIYSASFLYSGVPSRFSGSGSGTDFTLTISSLQPEDFATTYYCQQSYTGTVTFGQGTKVEIKRTVAAPDIQMTQSPSSLSASVGDRVTITCRASQDVSTAVAWYQQKPGKAPKLLIYSASFLYSGVPSRFSGSGSGTDFTLTISSLQPEDFATYYCQQSYTTPPTFGQGTKVEIKRTVAAPSVFIFPPSDEQLKSGTASVVCLLNNFYPREAKVQWKVDNALQSGNSQESVTEQDSKDSTYSLSSTLTLSKADYEKHKVYACEVTHQGLSSPVTKSFNRGEC
notes: HC linker long, LC linker short; also called DVD-Ig DVD477
The molecule B14 displayed a Kd of 0.306 nM, a koff of 0.000165 s⁻¹ and a kon of 540000 M⁻¹ s⁻¹.

The values are drawn from patent US20100260668A1 (published 2010).
